From the supplement of paper PMC9170038 come the findings set out here.

The subject of the data set is MS2 coat protein. The data set is described as follows: apparent KD of MS2 coat protein; designed switch direction (-1 OFF switch, 1 ON switch): -1; higher = weaker reporter binding. In short, it runs like this:
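Designed RNA switches with common flanks were made on Illumina chips by stalled E. coli RNA polymerase. Titration with SNAP-549-labelled MS2 coat protein doubled from 0.7 or 1.5 nM up to 3 µM. Apparent KD is each design's median over clusters after curve-fitting normalised fluorescence.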

The mark [1] stands for this setting: input ligand: microRNA oligo, concentration not stated.
[2] abbreviates: Eterna round: R95, input ligand: microRNA oligo, concentration not stated.

For the sequence “GUAAUUAAUGUAGGAUAUGCAAGGCGAACCUAAGCAGAAGGACAUGUGGAUCACCCAUGACAUGAGGAUCACCCAUGUAUCGCU [salish99_ExNG1_r4_005] (Eterna round: R96, puzzle: Exclusion NG 1)”, the “apparent KD of MS2 coat protein” value runs as follows: (input ligand: FMN 200 uM) 109 nM; under setting [1], 122 nM; (input ligand: none) 212 nM.
Regarding “GUAAUUAUAUAGGAUAUCGAAUUUAUUAUUUAACGAGAAGGAUGAACAUGAGGAUCACCCAUGUGGUAUCAUGG [JL-ex6-3.04] (puzzle: Exclusion 6)”, the “apparent KD of MS2 coat protein” value reads like this: (Eterna round: R95, input ligand: FMN 200 uM) 145 nM; under setting [2], 139 nM; (Eterna round: R95, input ligand: none) 165 nM.
With “GUACACGGCUAGGAUAUCAUUCCUUGCGACCCUUGAGAAGGAGCCACAUGAGGAUCACCCAUGUCAUAUGCAGA [Eternabot (Original) Solution 38] (Eterna round: R97, puzzle: Exclusion 6)”, the “apparent KD of MS2 coat protein” value by setting is: (input ligand: FMN 200 uM) 37.5 nM; (input ligand: none) 33.2 nM.
For the sequence “GUACAUAUAGGAUAUACAUGAGGAUCACCCAUGUAAAUCGUUAGUUGGGAUUCUAAAAGUAGAAGGGUGGUGCG [Eternabot (L2) Solution 30] (Eterna round: R97, puzzle: Exclusion 3)”, the “apparent KD of MS2 coat protein” value is, setting by setting: (input ligand: FMN 200 uM) 27.6 nM; (input ligand: none) 27.4 nM.
As to “GUACCAGAUGUCAGGAUAUGCUUUGAGAGUUGCGAGUAGAAGGGACAUGAGGAUCACCCAUGUACCUACAGGAA [BmEX4 B.30] (Eterna round: R97, puzzle: Brourd's mod of Exclusion 4)”, the “apparent KD of MS2 coat protein” value (input ligand: FMN 200 uM) was determined as 14.7 nM and the “apparent KD of MS2 coat protein” value (input ligand: none) amounted to 14 nM.
On to “GUACUGAAGCUUUGCUUUAGUCGUACAUGAGGAUCACCCAUGUAGGAUAUGGUAAGCAUAGCUUACUAGAAGGAUAGAGUGAUC [Mat - Exclusion NG 3 - Mod of JL - D65] (Eterna round: R96, puzzle: Exclusion NG 3)”, for which the “apparent KD of MS2 coat protein” value runs as follows: (input ligand: FMN 200 uM) 169 nM; under setting [1], 56.6 nM; (input ligand: none) 97.8 nM.
In the case of “GUACUGACAGGAUAUACAUGAGGAUCACCCAUGUCCUUAGGCUGACAAAAGUCAGCAAGUAGAAGGGUCUGUAC [Omei Ex3 Model Bachelor's Dilema v3] (Eterna round: R97, puzzle: Exclusion 3)”, the “apparent KD of MS2 coat protein” value (input ligand: FMN 200 uM) came to 1500 nM and the “apparent KD of MS2 coat protein” value (input ligand: none) was 85.5 nM.
In the same order, the values of “GUACUGACAGGAUAUACAUGAGGAUCACCCAUGUGCCCUUAAUGAUGCAAAGCAUCAAGUAGAAGGGUCUGUAC [Omei Ex3 Model Bachelor's Dilema v22] (Eterna round: R97, puzzle: Exclusion 3)” are 42.5 nM and 32.8 nM.
“GUACUGACAGGAUAUACAUGAGGAUCACCCAUGUGCCUUAGCGCUACAAAAGUAGCGCGUAGAAGGGUCUGUAC [Omei Ex3 Model Bachelor's Dilema v16] (Eterna round: R97, puzzle: Exclusion 3)”: the “apparent KD of MS2 coat protein” value (input ligand: FMN 200 uM) turned out to be 22.4 nM and the “apparent KD of MS2 coat protein” value (input ligand: none) came out at 14.7 nM.
Take “GUACUGACAGGAUAUACAUGAGGAUCACCCAUGUGCCUUAUCGCUACAAAAGUAGCGAGUAGAAGGGUCUGUAC [Omei Ex3 Model Bachelor's Dilema v18] (Eterna round: R97, puzzle: Exclusion 3)”: the “apparent KD of MS2 coat protein” value is, setting by setting: (input ligand: FMN 200 uM) 27.1 nM; (input ligand: none) 16.6 nM.
Regarding “GUAGAGUCAGGAUAUACAAGAUCGAAAGAUCGAAGAUCCAUACAUGAGGAUCACCCAUGUAGAAGGGACUCUAC [ChP 11-04-2015 #3] (puzzle: Exclusion 2)”, the “apparent KD of MS2 coat protein” value under setting [2] is 16.9 nM.
In the case of “GUAGAGUCAGGAUAUACGAGAUCGAAAGAUCAGCGAUCCUUACAUGAGGAUCACCCAUGUAGAAGGGACUCUAC [Omei mod 11 to Eli's favorate candidate (ch.parushev)] (Eterna round: R97, puzzle: Exclusion 2)”, the “apparent KD of MS2 coat protein” value was found to be 254 nM (input ligand: FMN 200 uM) and 24.3 nM (input ligand: none).
